± gives the standard error. Variants at the floor of the assay were thinned out.
B1: glmS ribozyme (parent)
chain: AUAAAAGCGCCAGAACUACAGAAAUGUAGUUGACGAGGAGGAGGUUUAUCGAAUUUUCGGCGGAUGCCUCCAAA

Assays:
Settings in all cases: with glucosamine-6-phosphate
glucosamine-6-phosphate [1] = variants of: B1; assay: self-cleavage kobs at 40 uM GlcN6P; higher = faster cleavage; RNA array
How it was run: (§1)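 Weighted Michaelis–Menten fits across concentrations supplied kcat and KM, based on kobs from one- or two-exponential decay fits to normalised per-tile medians. The data came from barcoded ribozyme variants transcribed in situ by E. coli RNA polymerase on sequenced MiSeq chips and tracked at 37 °C by a hybridised Cy3 probe. Glucosamine-6-phosphate (40 μM to 10 mM) in HEPES/KCl/Mg(OAc)2 buffer was flowed in.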

glucosamine-6-phosphate [2] = variants of: B1; assay: self-cleavage kobs at 160 uM GlcN6P; higher = faster cleavage; RNA array
How it was run: as §1

glucosamine-6-phosphate [3] = variants of: B1; assay: self-cleavage kobs at 640 uM GlcN6P; higher = faster cleavage; RNA array
How it was run: as §1

glucosamine-6-phosphate [4] = variants of: B1; assay: self-cleavage kobs at 2500 uM GlcN6P; higher = faster cleavage; RNA array
How it was run: as §1

glucosamine-6-phosphate [5] = variants of: B1; assay: self-cleavage kobs at 10000 uM GlcN6P; higher = faster cleavage; RNA array
How it was run: as §1

Variant	self-cleavage kobs at 40 uM GlcN6P (glucosamine-6-phosphate [1])	self-cleavage kobs at 160 uM GlcN6P (glucosamine-6-phosphate [2])	self-cleavage kobs at 640 uM GlcN6P (glucosamine-6-phosphate [3])	self-cleavage kobs at 2500 uM GlcN6P (glucosamine-6-phosphate [4])	self-cleavage kobs at 10000 uM GlcN6P (glucosamine-6-phosphate [5])
C10U G37A G44A U57C	< 1e-05 s⁻¹	–	–	–	–
U46G A52G C61A	< 1e-05 s⁻¹	–	–	–	–
C34G A64G	< 1e-05 s⁻¹	< 1e-05 s⁻¹	< 1e-05 s⁻¹	< 1e-05 s⁻¹	< 1e-05 s⁻¹
A6G U65C	< 1e-05 s⁻¹	< 1e-05 s⁻¹	< 1e-05 s⁻¹	< 1e-05 s⁻¹	< 1e-05 s⁻¹
U30A C61U	< 1e-05 s⁻¹	–	< 1e-05 s⁻¹	–	< 1e-05 s⁻¹
A36C U49C U65A	< 1e-05 s⁻¹	–	–	–	< 1e-05 s⁻¹
G9A A14U C61A	< 1e-05 s⁻¹	–	–	< 1e-05 s⁻¹	–
G40A U47G	8.03e-05 ± 1.9e-05 s⁻¹	0.000122 ± 2.3e-05 s⁻¹	0.000547 ± 0.00011 s⁻¹	0.00069 ± 0.00018 s⁻¹	0.00267 ± 0.0004 s⁻¹
G13C G32C U47C	< 1e-05 s⁻¹	–	–	–	–
G7U C8A A33U G43A U55A	< 1e-05 s⁻¹	–	< 1e-05 s⁻¹	< 1e-05 s⁻¹	< 1e-05 s⁻¹
C10G C11G C68U	< 1e-05 s⁻¹	–	–	–	–
G7A G13A	< 1e-05 s⁻¹	< 1e-05 s⁻¹	< 1e-05 s⁻¹	–	< 1e-05 s⁻¹
A14U A39G G44A C50A C71A	< 1e-05 s⁻¹	–	–	< 1e-05 s⁻¹	< 1e-05 s⁻¹
C10G G29C G40A	< 1e-05 s⁻¹	–	–	–	< 1e-05 s⁻¹
G51C A64U	< 1e-05 s⁻¹	< 1e-05 s⁻¹	< 1e-05 s⁻¹	–	< 1e-05 s⁻¹
C10G U30C A33C U55A	< 1e-05 s⁻¹	–	–	–	< 1e-05 s⁻¹
C10A A39U U49C	< 1e-05 s⁻¹	–	–	–	< 1e-05 s⁻¹
C11G A39U C50G	< 1e-05 s⁻¹	< 1e-05 s⁻¹	< 1e-05 s⁻¹	< 1e-05 s⁻¹	< 1e-05 s⁻¹
G9A U55C C71A	< 1e-05 s⁻¹	–	< 1e-05 s⁻¹	< 1e-05 s⁻¹	–
A12C C16G A36U	< 1e-05 s⁻¹	–	–	–	< 1e-05 s⁻¹
C11A U46G A52C	< 1e-05 s⁻¹	–	–	–	< 1e-05 s⁻¹
G37C C50U G66U	< 1e-05 s⁻¹	–	–	–	< 1e-05 s⁻¹

Variant	self-cleavage kobs at 40 uM GlcN6P (glucosamine-6-phosphate [1])	self-cleavage kobs at 160 uM GlcN6P (glucosamine-6-phosphate [2])	self-cleavage kobs at 640 uM GlcN6P (glucosamine-6-phosphate [3])	self-cleavage kobs at 2500 uM GlcN6P (glucosamine-6-phosphate [4])	self-cleavage kobs at 10000 uM GlcN6P (glucosamine-6-phosphate [5])
A12U A64G	0.000953 ± 0.00018 s⁻¹	0.0025 ± 0.00063 s⁻¹	0.00536 ± 0.0011 s⁻¹	0.0169 ± 0.0043 s⁻¹	0.052 ± 0.015 s⁻¹
C34U G35U	< 1e-05 s⁻¹	< 1e-05 s⁻¹	< 1e-05 s⁻¹	< 1e-05 s⁻¹	< 1e-05 s⁻¹
U31A C61A A64U	< 1e-05 s⁻¹	–	–	–	< 1e-05 s⁻¹
C8G G9C U55A	< 1e-05 s⁻¹	–	< 1e-05 s⁻¹	< 1e-05 s⁻¹	< 1e-05 s⁻¹
G38A U49C	< 1e-05 s⁻¹	–	–	< 1e-05 s⁻¹	–
C10U C50G C70G	5.33e-05 ± 1.6e-05 s⁻¹	–	–	–	–
A52G G62C	< 1e-05 s⁻¹	< 1e-05 s⁻¹	< 1e-05 s⁻¹	–	< 1e-05 s⁻¹
A6U G51U	< 1e-05 s⁻¹	< 1e-05 s⁻¹	< 1e-05 s⁻¹	< 1e-05 s⁻¹	< 1e-05 s⁻¹
A39G C50G C58A	0.000142 ± 4.6e-05 s⁻¹	–	–	–	–
A53U C68U	0.000159 ± 2.1e-05 s⁻¹	0.000357 ± 0.00011 s⁻¹	0.000788 ± 9.5e-05 s⁻¹	0.00421 ± 0.00073 s⁻¹	0.00507 ± 0.00083 s⁻¹
A6U G38U A48U A52G C68A U69G	7.26e-05 ± 3.3e-05 s⁻¹	–	–	–	8.71e-05 ± 2.3e-05 s⁻¹
G41C U65G	< 1e-05 s⁻¹	< 1e-05 s⁻¹	< 1e-05 s⁻¹	–	–
U31C U69C	4.67e-05 ± 1.5e-05 s⁻¹	5.62e-05 ± 1.5e-05 s⁻¹	0.000232 ± 6.2e-05 s⁻¹	0.00045 ± 8.2e-05 s⁻¹	0.0013 ± 0.00035 s⁻¹
G13C U30G U54G G63U C67U	< 1e-05 s⁻¹	–	–	–	< 1e-05 s⁻¹
G9A G29C	< 1e-05 s⁻¹	< 1e-05 s⁻¹	< 1e-05 s⁻¹	–	< 1e-05 s⁻¹
U47C G66C C67U	< 1e-05 s⁻¹	–	–	–	–
C34A U45G	< 1e-05 s⁻¹	< 1e-05 s⁻¹	< 1e-05 s⁻¹	< 1e-05 s⁻¹	< 1e-05 s⁻¹
A6G G60C	< 1e-05 s⁻¹	< 1e-05 s⁻¹	< 1e-05 s⁻¹	< 1e-05 s⁻¹	–
A14U U49A	< 1e-05 s⁻¹	< 1e-05 s⁻¹	< 1e-05 s⁻¹	–	–
G9U A33G G38U G44U C58A	< 1e-05 s⁻¹	–	–	–	–
A12U A52C C58U C71U	< 1e-05 s⁻¹	–	–	–	–
A12C C50U U54G	< 1e-05 s⁻¹	–	–	–	–

Variant	self-cleavage kobs at 40 uM GlcN6P (glucosamine-6-phosphate [1])	self-cleavage kobs at 160 uM GlcN6P (glucosamine-6-phosphate [2])	self-cleavage kobs at 640 uM GlcN6P (glucosamine-6-phosphate [3])	self-cleavage kobs at 2500 uM GlcN6P (glucosamine-6-phosphate [4])	self-cleavage kobs at 10000 uM GlcN6P (glucosamine-6-phosphate [5])
G29U G44A	< 1e-05 s⁻¹	< 1e-05 s⁻¹	–	–	3.45e-05 ± 9.6e-06 s⁻¹
C16U G40U C68G	< 1e-05 s⁻¹	< 1e-05 s⁻¹	–	–	< 1e-05 s⁻¹
C8G G40A	< 1e-05 s⁻¹	< 1e-05 s⁻¹	–	< 1e-05 s⁻¹	< 1e-05 s⁻¹
A6C A48U	< 1e-05 s⁻¹	–	–	< 1e-05 s⁻¹	–
U56A C70U C71U	5.46e-05 ± 1.5e-05 s⁻¹	–	8.84e-05 ± 1.7e-05 s⁻¹	0.000232 ± 5.2e-05 s⁻¹	8.85e-05 ± 1.7e-05 s⁻¹
G9A A42C	< 1e-05 s⁻¹	< 1e-05 s⁻¹	< 1e-05 s⁻¹	< 1e-05 s⁻¹	–
A6C C58U	< 1e-05 s⁻¹	< 1e-05 s⁻¹	–	–	< 1e-05 s⁻¹
C10A A36C	< 1e-05 s⁻¹	–	< 1e-05 s⁻¹	< 1e-05 s⁻¹	< 1e-05 s⁻¹
G35U C61A	< 1e-05 s⁻¹	–	< 1e-05 s⁻¹	< 1e-05 s⁻¹	< 1e-05 s⁻¹
A6C C8U A14G	< 1e-05 s⁻¹	–	–	–	< 1e-05 s⁻¹
C11U A52C	< 1e-05 s⁻¹	–	< 1e-05 s⁻¹	< 1e-05 s⁻¹	< 1e-05 s⁻¹
G29U C71A	5.78e-05 ± 1.4e-05 s⁻¹	–	0.000172 ± 4.8e-05 s⁻¹	0.000288 ± 0.00011 s⁻¹	0.00103 ± 0.00015 s⁻¹
C34G G35C	< 1e-05 s⁻¹	–	–	–	–
U55C C61U	< 1e-05 s⁻¹	–	–	–	–
U45C G63U	< 1e-05 s⁻¹	< 1e-05 s⁻¹	< 1e-05 s⁻¹	< 1e-05 s⁻¹	< 1e-05 s⁻¹
A14G A15C G41U C58U	< 1e-05 s⁻¹	–	–	–	< 1e-05 s⁻¹
C16A C61U C70A	< 1e-05 s⁻¹	–	–	–	–
G9U G43C U46G C67A	< 1e-05 s⁻¹	–	–	–	–
A6C G43C	< 1e-05 s⁻¹	< 1e-05 s⁻¹	< 1e-05 s⁻¹	–	< 1e-05 s⁻¹
U49A C50G U57A C67A C71A	0.000473 ± 0.00018 s⁻¹	0.000223 ± 6.6e-05 s⁻¹	0.000357 ± 0.00011 s⁻¹	7.6e-05 ± 3.3e-05 s⁻¹	–
C8U C16U C50G G60A G66U	0.000197 ± 6.5e-05 s⁻¹	9.7e-05 ± 4.4e-05 s⁻¹	–	–	0.000101 ± 2.7e-05 s⁻¹
U45A G60U C68G C70U	< 1e-05 s⁻¹	–	–	–	–

Variant	self-cleavage kobs at 40 uM GlcN6P (glucosamine-6-phosphate [1])	self-cleavage kobs at 160 uM GlcN6P (glucosamine-6-phosphate [2])	self-cleavage kobs at 640 uM GlcN6P (glucosamine-6-phosphate [3])	self-cleavage kobs at 2500 uM GlcN6P (glucosamine-6-phosphate [4])	self-cleavage kobs at 10000 uM GlcN6P (glucosamine-6-phosphate [5])
C34A G43C	< 1e-05 s⁻¹	< 1e-05 s⁻¹	< 1e-05 s⁻¹	–	< 1e-05 s⁻¹
A12U U30G G51C	< 1e-05 s⁻¹	–	< 1e-05 s⁻¹	< 1e-05 s⁻¹	–
G13U G35U	< 1e-05 s⁻¹	< 1e-05 s⁻¹	< 1e-05 s⁻¹	< 1e-05 s⁻¹	< 1e-05 s⁻¹
G32A A33C C68G C71G	5.72e-05 ± 1.6e-05 s⁻¹	–	–	–	8.64e-05 ± 2e-05 s⁻¹
G9U G29C A33U A64U	< 1e-05 s⁻¹	–	< 1e-05 s⁻¹	< 1e-05 s⁻¹	< 1e-05 s⁻¹
G7U A36C G59U	< 1e-05 s⁻¹	–	–	–	< 1e-05 s⁻¹
G60U C61G	< 1e-05 s⁻¹	–	–	< 1e-05 s⁻¹	< 1e-05 s⁻¹
A15U A39C G41C	< 1e-05 s⁻¹	–	< 1e-05 s⁻¹	< 1e-05 s⁻¹	–
G29U G40C A52G	< 1e-05 s⁻¹	–	–	–	–
U65G C67A	7.27e-05 ± 1.2e-05 s⁻¹	0.000116 ± 1.9e-05 s⁻¹	0.000435 ± 6.7e-05 s⁻¹	0.00133 ± 0.0004 s⁻¹	0.00417 ± 0.0006 s⁻¹
A14G A42G	0.0027 ± 0.00037 s⁻¹	0.00391 ± 0.0011 s⁻¹	0.00956 ± 0.0029 s⁻¹	0.0467 ± 0.022 s⁻¹	0.0773 ± 0.025 s⁻¹
A6C U45C G63A	< 1e-05 s⁻¹	–	–	< 1e-05 s⁻¹	–
G29C G37U G63U	< 1e-05 s⁻¹	–	–	–	–
G35C U46C	< 1e-05 s⁻¹	–	< 1e-05 s⁻¹	< 1e-05 s⁻¹	–
A42C G62U	< 1e-05 s⁻¹	–	< 1e-05 s⁻¹	< 1e-05 s⁻¹	< 1e-05 s⁻¹
C8U A33G	< 1e-05 s⁻¹	< 1e-05 s⁻¹	< 1e-05 s⁻¹	–	< 1e-05 s⁻¹
A36G U49G	< 1e-05 s⁻¹	–	< 1e-05 s⁻¹	–	–
G9A A33C	< 1e-05 s⁻¹	< 1e-05 s⁻¹	< 1e-05 s⁻¹	< 1e-05 s⁻¹	< 1e-05 s⁻¹
A15U G29C A48G C71A	< 1e-05 s⁻¹	–	–	–	–
U46G C61G	< 1e-05 s⁻¹	< 1e-05 s⁻¹	< 1e-05 s⁻¹	–	< 1e-05 s⁻¹
C8A C11U	< 1e-05 s⁻¹	–	< 1e-05 s⁻¹	< 1e-05 s⁻¹	< 1e-05 s⁻¹
C58G C68G	3.25e-05 ± 1.1e-05 s⁻¹	6.63e-05 ± 1.4e-05 s⁻¹	9.11e-05 ± 1.1e-05 s⁻¹	9.87e-05 ± 1.7e-05 s⁻¹	1.82e-05 ± 7.1e-06 s⁻¹

Reference: the supplement of paper PMC7125110
